# Source: publication PMC4381287, “Structural characterization of the late competence protein ComFB from Bacillus subtilis” (Bioscience Reports, 2014)
# Molecular target: the molecule itself
# Experiment: SEC; Superdex75 10/300 column, calibrated with standards of known molecular weight; wild type and variants at similar concentrations
protein,measurement,value
"late competence protein ComFB from Bacillus subtilis, N-terminally 6xHis-tagged, wild type (natural protein, B. subtilis, ComFB, second protein of the comF operon of Bacillus subtilis, amplified from chromosomal DNA of strain PY79; the purified tagged monomer is 13.5 kDa; the crystal model holds residues 1-91 (chain A); By LC-ESI MS the first methionine is removed; Each subunit holds one Zn2+ ion (C25, C27, C30, C88); The histidine tag was uncleaved in the crystals; also called His6-ComFB; native ComFB; source: E. …) MLVNSKEIVMKELLDRYMDQLHMACTCQVCQNDVLALSLNKVSPSYVTDFKKIAYTKAELVDKQKNTAMLVILAESAAVVSESPSDLCQTKQEEAFIN",stoichiometry N,2
